# Test results as given in paper PMC4538837, “Structural basis for substrate recognition and processive cleavage mechanisms of the trimeric exonuclease PhoExo I”.
# Target: PhoExo I D80N (Pyrococcus horikoshii OT3, UniProt A0A060P168 1-229, D80N)
# Assay: X-ray crystal structure (1.95 A); Mg2+ (soaked), one at A metal site; EMSA: 25 mM Hepes-NaOH pH 7.5, 50 mM NaCl, 0.1 mM EDTA, 0.1 mg/ml BSA, 5 nM probe, 0-1600 nM trimer, 5 min 55 C, then 0.05% glutaraldehyde 10 min at room temperature; 7.5% native PAGE in TBE
# Conditions: protein: recombinant; tags: C-terminal 4xHis (mutants made from the CHis plasmid; crystal construct not detailed in the material); chain copies: 3; single strand; 3 copies per trimer
# Chain of PhoExo I D80N (A0A060P168 entry or part of it D80N | D80N D80N): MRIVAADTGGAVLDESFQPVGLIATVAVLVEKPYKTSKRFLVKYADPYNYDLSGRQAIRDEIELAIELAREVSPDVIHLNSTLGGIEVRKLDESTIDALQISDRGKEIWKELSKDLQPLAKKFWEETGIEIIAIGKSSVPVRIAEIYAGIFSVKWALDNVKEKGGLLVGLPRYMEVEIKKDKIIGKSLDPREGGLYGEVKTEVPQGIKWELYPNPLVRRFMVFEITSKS
binder,measurement,value
TTTTTTT (ssDNA) [poly-dT 7 nt],binding result,binds
